Reference: the supplement of paper PMC9732359
± gives the uncertainty stated by the source.

Assay: protein stability index of a GFP-peptide fusion (yeast GPS) (PSI 1-4); higher = more stable; sorted into four equal gates, so the index is relative within each strain
Summary of the method: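 Tiled 17-residue yeast protein peptides were fused downstream of GFP in a plasmid that also expresses Cherry, and the pooled library was carried in yeast. Mid-log cultures in leucine-free medium were sorted into four equal gates by GFP/Cherry fluorescence ratio, and plasmids from each gate were PCR-amplified and Illumina-sequenced, with reads assigned to strains by barcodes. The protein stability index for each peptide was each gate's read frequency times its gate number, summed.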

Row | Sequence | protein stability index (doa10∆) | protein stability index (pdr5∆) | protein stability index (san1∆) | protein stability index (ubr1∆)
1 | SPFGAYGEAPTSPGFGV [RPO21] | 2.87 ± 0.086 | 3.12 ± 0.052 | 2.98 ± 0.076 | 3.17 ± 0.034
2 | SPIFEVLSDDAKKLSSF [ARP9] | 2.84 ± 0.062 | 3.19 ± 0.11 | 2.88 ± 0.058 | 3 ± 0.069
3 | SPLQKEEALNFDISMAD [SSN2] | 3.23 ± 0.058 | 3.07 ± 0.057 | 3.18 ± 0.07 | 3.25 ± 0.058
4 | SPLYMDTETFDTVNSAL [YML103C/NUP188] | 3.11 ± 0.14 | 3.27 ± 0.14 | 3.18 ± 0.074 | 3.21 ± 0.058
5 | SPMGAQPSYNSAIIENA [GAL11] | 2.88 ± 0.074 | 2.96 ± 0.071 | 2.5 ± 0.1 | 2.73 ± 0.045
6 | SPNFKNYLKYLEYWCNP [SOH1] | 2.32 ± 0.055 | 2.34 ± 0.056 | 1.88 ± 0.053 | 2.71 ± 0.06
7 | SPRFNVKIGDIEKWTAN [RPS22A] | 3.06 ± 0.082 | 3.23 ± 0.075 | 2.85 ± 0.065 | 3.34 ± 0.073
8 | SPTINRANVYVGFLVQL [PRP8] | 2.6 ± 0.065 | 1.89 ± 0.066 | 1.98 ± 0.1 | 2.1 ± 0.063
9 | SPYGNLQNDLIHKIQND [RPN5] | 2.02 ± 0.083 | 2.67 ± 0.053 | 2.82 ± 0.07 | 2.56 ± 0.058
10 | SQFCYVSDDESNGEVLE [RPN14] | 3.41 ± 0.22 |  |  | 3.09 ± 0.1
11 | SQIFDQLKDMQTIEMIT [SRB8] | 2.78 ± 0.058 | 3.11 ± 0.049 | 2.72 ± 0.049 | 2.85 ± 0.043
12 | SQKTKTIQSDLNLSLHK [SMC2] | 2.35 ± 0.056 | 2.3 ± 0.043 | 2.19 ± 0.071 | 2.67 ± 0.03
13 | SQLDLFLRTMKLTSEET [GRR1] | 2.77 ± 0.055 | 2.7 ± 0.052 | 3 ± 0.06 | 3.09 ± 0.043
14 | SQLNIQLSQDEHSQVEQ [SRP72] | 3.17 ± 0.06 | 3.07 ± 0.047 | 3.16 ± 0.048 | 3.05 ± 0.066
15 | SQLPITPMTRISELPPQ [YGL172W/NUP49] | 2.35 ± 0.057 | 2.67 ± 0.047 | 2.13 ± 0.051 | 2.71 ± 0.041
16 | SQPNNTPSFSFGKTTAN [YLR335W/NUP2] | 2.76 ± 0.054 | 2.84 ± 0.051 | 2.78 ± 0.058 | 2.87 ± 0.048
17 | SQSQQKLLKEKVKLFHG [MED2] | 3.1 ± 0.091 | 3.1 ± 0.093 | 3.07 ± 0.057 | 2.81 ± 0.08
18 | SQVDPITLFVLVSVVEA [FAS2] | 1.44 ± 0.045 | 2.03 ± 0.069 | 2.48 ± 0.077 | 1.45 ± 0.072
19 | SQVFGVARIYASFNDTF [RPS14A] | 2.05 ± 0.062 | 1.81 ± 0.045 | 2.11 ± 0.073 | 2.38 ± 0.056
20 | SQVLDLAKKIAPGKVEL [SMC2] |  | 3.28 ± 0.19 |  | 2.84 ± 0.2
21 | SREAVRHFGMGPHKGKA [RPL18A] | 3.22 ± 0.19 | 2.8 ± 0.12 | 3.04 ± 0.098 | 3.66 ± 0.16
22 | SRGFEVMYNGHTGKKLM [RPB2] | 1.97 ± 0.12 | 3.33 ± 0.25 | 2.71 ± 0.13 | 
23 | SRKETSRTATWLKNKFA [BRR2] | 1.37 ± 0.057 | 1.29 ± 0.041 | 1.67 ± 0.11 | 1.49 ± 0.063
24 | SRLKALNLQFKAKVDDL [YLR335W/NUP2] | 3.12 ± 0.075 | 3.2 ± 0.091 | 3.05 ± 0.1 | 3.11 ± 0.069
25 | SRSTDNFHNSKKRMNSN [RRI1] | 2.11 ± 0.06 | 2.4 ± 0.081 | 2.26 ± 0.1 | 2.61 ± 0.081
26 | SRTLILSILNEIKKVTQ [SIN4] | 3.05 ± 0.12 | 2.56 ± 0.15 | 2.27 ± 0.11 | 2.82 ± 0.084
27 | SRYEPKVFDCGDNIVMS [PRE7] | 2.49 ± 0.12 | 2.78 ± 0.11 | 2.89 ± 0.11 | 2.06 ± 0.23

Row | Sequence | protein stability index (doa10∆) | protein stability index (pdr5∆) | protein stability index (san1∆) | protein stability index (ubr1∆)
28 | SSDAFEVDVCDKCGLMG [RET1] | 2.38 ± 0.18 | 2.59 ± 0.11 | 2.33 ± 0.19 | 2.12 ± 0.11
29 | SSDGQLKKFRESLVHSA [BRR2] | 3.41 ± 0.15 | 3.25 ± 0.23 | 3.22 ± 0.16 | 3.33 ± 0.13
30 | SSEYETINISLSFSWAI [NUT1] | 1.51 ± 0.1 | 1.64 ± 0.16 | 2.21 ± 0.13 | 2.4 ± 0.13
31 | SSFEKFNDSQAIVCYIL [SRP72] | 2.43 ± 0.046 | 2.53 ± 0.047 | 2.42 ± 0.042 | 2.63 ± 0.031
32 | SSHAKGIVLEKLGIESK [RPS23A] | 3.02 ± 0.15 | 2.88 ± 0.13 | 2.67 ± 0.095 | 3.17 ± 0.17
33 | SSIDRGFGRCETRRKTT [RET1] | 2.41 ± 0.071 | 2.38 ± 0.12 | 2.21 ± 0.13 | 2.52 ± 0.05
34 | SSIENNINNNINSTKNG [MED2] | 2.85 ± 0.081 | 3.11 ± 0.093 | 2.88 ± 0.084 | 3.17 ± 0.063
35 | SSKKVFSSNLSYANHLE [YOR098C/NUP1] | 2.31 ± 0.067 | 2.31 ± 0.064 | 2.1 ± 0.078 | 2.48 ± 0.047
36 | SSKLVDVYTLPSYVHFK [YML103C/NUP188] | 1.82 ± 0.047 | 1.61 ± 0.046 | 1.69 ± 0.061 | 1.46 ± 0.036
37 | SSKPAFNLISNAGTEKE [YLR335W/NUP2] | 3.13 ± 0.094 | 2.95 ± 0.098 | 3.13 ± 0.065 | 3.07 ± 0.061
38 | SSLKESSPDTMKLTDLL [SNF12] | 3.09 ± 0.088 | 3.08 ± 0.083 | 2.71 ± 0.098 | 3.1 ± 0.076
39 | SSLMNGLGYVFEFQYLT [SRB5] | 2.25 ± 0.095 | 1.83 ± 0.085 | 1.64 ± 0.084 | 3.19 ± 0.073
40 | SSNILEDILYYSTCPSE [SRB8] | 2.4 ± 0.1 | 2.4 ± 0.075 | 2.77 ± 0.059 | 2.54 ± 0.062
41 | SSQNNSELAPIEEHPTV [IRR1] |  |  |  | 3.14 ± 0.17
42 | SSSIKSTGPTGAVSLNP [RRP4] | 3.24 ± 0.035 | 3.37 ± 0.048 | 3.231 ± 0.027 | 3.151 ± 0.031
43 | SSSKQQSRLFINELVLE [SMC4] | 3.02 ± 0.14 | 2.95 ± 0.1 | 2.58 ± 0.16 | 3.05 ± 0.085
44 | SSSKSMINDENYIINDI [SRB8] | 2.92 ± 0.064 | 2.82 ± 0.052 | 2.63 ± 0.074 | 2.83 ± 0.04
45 | SSSNGGGSAKPSLKFKP [RPC53] | 2.61 ± 0.13 | 3 ± 0.14 | 2.74 ± 0.093 | 3.34 ± 0.091
46 | SSSSDIIVPDLIELKSD [YML103C/NUP188] | 2.71 ± 0.085 | 3.15 ± 0.059 | 2.67 ± 0.13 | 2.7 ± 0.07
47 | SSSTQNVFVILMDKCLP [DIS3] | 1.97 ± 0.085 | 1.96 ± 0.053 | 2.13 ± 0.052 | 1.95 ± 0.043
48 | SSTPKFTKKPVTPNDKI [SIR4] | 2.96 ± 0.11 | 2.89 ± 0.07 | 2.96 ± 0.062 | 3.08 ± 0.054
49 | STAFVPTIEYVQCPTVI [ARP9] | 1.68 ± 0.065 | 1.97 ± 0.048 | 1.71 ± 0.08 | 1.88 ± 0.052
50 | STCIVSLIRNNLHAEGW [ECM29] | 1.21 ± 0.052 | 1.47 ± 0.068 | 2 ± 0.077 | 1.64 ± 0.067
51 | STLTLSDSEDSDAKEQH [ESC2] |  |  |  | 1.06 ± 0.13
52 | STRASTVPNLPTTMVTN [ISW2] | 1.92 ± 0.055 | 2.38 ± 0.056 | 2.35 ± 0.058 | 2.38 ± 0.047
53 | STTAALQSISSLTISLY [RPN7] | 1.74 ± 0.041 | 1.82 ± 0.035 | 1.95 ± 0.049 | 2.12 ± 0.047
54 | STTTSLHVPNLQPPKTS [SMC4] | 2.13 ± 0.036 | 2.33 ± 0.033 | 2.1 ± 0.046 | 1.93 ± 0.027
